Experimental data as given in the DeepSol protein solubility set.

Experiment: soluble on expression in E. coli; label from the status in PepcDB or PDB records

Sequence | soluble on expression in E. coli
MAPPKRRSTRPTTPAAPTDPPIEEKKPDLLIAYDSDEKFVFSFSEEGLTAKECAEKMNGFSTKEQFLTEVHVDEMLRFLTKVIIGRKGEPLKCLCCDRLYVSSSGFLIHIKKCSTKNEQDRLTDAQNKYRNEPSKWLNVRKKDQIATLKTIVGTNYTCFMIGCSLNFGSLKDLIEHLATCIGADYYSYKNRPDDFRKLSKKAKQAYTLDAVTKNKGIVKCLVCDKEYTNHMSIIYHIDRCQVDKSLQPWKCWRCGFDATAADAQEHLIDCGRTAEMKMFDRLPESSSFGFPIPGSSVPSTSEPTTSAAAAPTKRKRVTGGAPRATPRKDGTTLYRFRKSTISRSSNGIVTKKDKKLYEDQCSKIFENWKQKSAEIAFCDTLSNIANSKWKLSILDSNDQFYRIFTRQSVTLVSGKTLGLQQTVPPGIRLDALKSREMLDEDDAPKATVGYCGAPINSINVAPGKTRDGSDVICVTTFANDTDLESDSSCVQFWKHKLGKKKKSHLELWFLIHLPLRGTILHATWLQKQHNDEMMTSLIGYVAFSTTIGQILIYKIDESRVPEAPDRGDNVHVIVADPDLTLRLPKSTDTPDDTFLNADVKMEGDDIVVLPTRIDESTVPLLKIAWSYHNGGATLAALTALGAIAIWNLDGGDLDMPRVNIEESWQSPPSDIAFWNIDHLVVGFREKIVKVISIETWDVMLEDNTAKNAGSRVHTDNRIVRSFFMFQSDHTAFPYPNATNLTYVHCDIDTMTMILVPTGNTHQLLTWDVAMCPAVGTLLSSGIDGRLVASATGRFLGNMRHSYFANRNVMALKRRRILKESQTMEEYLKEVKMEGSAEGSTSTSTTKISDDKINEPLEESITEHTEVCQKMWLDVQFDEIFEPTRPEFSCRDQRIESLNCVDGTTSRDWPVSFTGGEAGLLFAVSVKLHIEEMDL | not soluble
MAPQMEKVSEELILPSSPTPQSLKCYKISHLDQLLLTCHIPFILFYPNPLDSNLDPAQTSQHLKQSLSKVLTHFYPLAGRINVNSSVDCNDSGVPFVEARVQAQLSQAIQNVVELEKLDQYLPSAAYPGGKIEVNEDVPLAVKISFFECGGTAIGVNLSHKIADVLSLATFLNAWTATCRGETEIVLPNFDLAARHFPPVDNTPSPELVPDENVVMKRFVFDKEKIGALRAQASSASEEKNFSRVQLVVAYIWKHVIDVTRAKYGAKNKFVVVQAVNLRSRMNPPLPHYAMGNIATLLFAAVDAEWDKDFPDLIGPLRTSLEKTEDDHNHELLKGMTCLYELEPQELLSFTSWCRLGFYDLDFGWGKPLSACTTTFPKRNAALLMDTRSGDGVEAWLPMAEDEMAMLPVELLSLVDSDFSK | soluble
MAPSAAVGNYGEVIDYLQRHIRREMERQDVPGLALALVDDQQLVWARGFGYADRQHRINASEHTAFHAGDLSKLLIASATLQLAERGQLSLDAPLQDTLREFYVRSRFHADQSEADRAITFRRLLSHQSGLPGEHLPPLFGERPNSLGQLPAKVSGVWLSNPPGTQVAHSNLGYELVGAAIERNTGKHFEQHMREHLLDPLQMTRSSFARNALPQAQRAHGYSGGGRPGSASDLPVNDLWSSPVDLSRFVRMLFANGRHKERQLLRKHSVEEMFRQQNAGNALDFDCQVGLAWFLSPCGSAPLEGGIRHYEYASATPGFSAHLILLPEQRLAAIVMSNADDSGSLTASLARQAASLMLQVKQGARRPAVQLEHHHHHH | not soluble
MAPVLGLLENEAKVKSIIRNNNLLEKKFSSFQRQCRDLSRNHALLDSCCSQVKHSATAAEEMSVSDKDVKNHQKKLHSFLAQSTDQVNSTIDKMDFFCSKGNHSLPMEMSVLSITLPYEACIEKSAKKHETMVFSIDEVSSAVQHLENEKVDVEKRQSSTGKLIFQTEKEIMKLKEEIQVNTNLESNIIQLSLEKLSSVKDSSTSENVYKAKLEEEINEARQIYEDALKQDVISQESAMMTQQLESLNELCSDLSDLNKINLTSIEKFPDCNEVCELSDELQTLEKSEAENSESIINLEASLEDIKYQNKKVRKSFDQINQLENAYIVKKEVLTRKKSAIEDVKRQIAESKITLNKLKVTVRAVERSDTPENVESKKEEAFRRLVASSTELPGPESFQRDNVRNVEKSLRFKKWNQRTTSQSSFTSDSTRSIGPIGVHYPGIKLINKDAATPTEVIRKITSELNESATSEDSTFDDDTGTTQDESGLNAFFNSPVSKEQTSMRPQFSMIAHMEKYDTMQAKKNMDKLPDNVRRESEMEHISHNYGRPSEVNRPASVSSKRHDPAASISATSEESILSGTTQDESMLNDFFNPTGTDEKLNDVEFSMTAHVAEFDNRQKAKRAAEQIKKSSSKISGKKEESVADDKSSGNSYVAESEAGFSQGSEENESMDDEDLVAPDDGGLDQTIWDGDD | not soluble
MAQEDVTAVATNGAGPVETHLVFTEFKQMLLVEAQKVGDAVTFYKSAFGAIESGHSLYPKRKLDQELPHVLSSELNLAGSSFVVCDVSSLPGFSTAKSEGSGVTFLLGTKDAEAAVAKAVDAGAVKVEVTEAEVELGFKGKVTDPFGVTWIFAEKKTVITDENKEV | soluble
